Measurements from article PMC2171419 (The Journal of Cell Biology, 2005).

T1: GST–14-3-3ζ Ser184A (UniProt P63104 1-245, Ser184A)
T1 sequence (looked up): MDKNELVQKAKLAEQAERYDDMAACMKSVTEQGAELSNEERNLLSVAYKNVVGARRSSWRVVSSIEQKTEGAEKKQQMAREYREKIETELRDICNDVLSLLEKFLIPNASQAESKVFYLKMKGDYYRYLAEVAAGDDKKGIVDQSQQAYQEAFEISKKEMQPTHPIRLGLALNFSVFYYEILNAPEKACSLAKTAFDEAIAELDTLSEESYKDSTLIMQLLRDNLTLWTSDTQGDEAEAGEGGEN

T2: GST–14-3-3ζ (WT) (UniProt P63104 1-245)
T2 sequence (looked up): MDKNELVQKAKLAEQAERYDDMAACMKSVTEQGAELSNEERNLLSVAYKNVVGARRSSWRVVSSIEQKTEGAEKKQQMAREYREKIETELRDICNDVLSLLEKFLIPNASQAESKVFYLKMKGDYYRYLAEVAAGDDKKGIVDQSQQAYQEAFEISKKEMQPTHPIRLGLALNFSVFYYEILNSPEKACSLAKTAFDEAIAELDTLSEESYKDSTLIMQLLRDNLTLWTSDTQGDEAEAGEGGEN


Columns and labels:
[1] = target: T1, GST–14-3-3ζ Ser184A; experiment: pull-down
[2] = target: T2, GST–14-3-3ζ (WT); experiment: pull-down

Binder | binding result [1] | binding result [2]
His-tagged Bad wild type, phosphorylated by CA-Akt (natural protein, mouse, UniProt Q61337 1-204, looked up, phosphoserine at 136 (by CA-Akt in vitro)) MGTPKQPSLAPAHALGLRKSDPGIRSLGSDAGGRRWRPAAQSMFQIPEFEPSEQEDASATDRGLGPSLTEDQPGPYLAPGLLGSNIHQQGRAATNSHHGGAGAMETRSRHSSYPAGTEEDEGMEEELSPFRGRSRSAPPNLWAAQRYGRELRRMSDEFEGSFKGLPRPKSAGTATQMRQSAGWTRIIQSWWDRNLGKGGSTPSQ | binds | 
His-tagged Bad Ser128A-Thr201A, phosphorylated by active Akt (natural protein, mouse, UniProt Q61337 1-204, looked up, phosphoserine at 136 (by CA-Akt in vitro)) MGTPKQPSLAPAHALGLRKSDPGIRSLGSDAGGRRWRPAAQSMFQIPEFEPSEQEDASATDRGLGPSLTEDQPGPYLAPGLLGSNIHQQGRAATNSHHGGAGAMETRSRHSSYPAGTEEDEGMEEELAPFRGRSRSAPPNLWAAQRYGRELRRMSDEFEGSFKGLPRPKSAGTATQMRQSAGWTRIIQSWWDRNLGKGGSAPSQ |  | binds
His-tagged Bad Ser128A, phosphorylated by active Akt (natural protein, mouse, UniProt Q61337 1-204, looked up, phosphoserine at 136 (by CA-Akt in vitro)) MGTPKQPSLAPAHALGLRKSDPGIRSLGSDAGGRRWRPAAQSMFQIPEFEPSEQEDASATDRGLGPSLTEDQPGPYLAPGLLGSNIHQQGRAATNSHHGGAGAMETRSRHSSYPAGTEEDEGMEEELAPFRGRSRSAPPNLWAAQRYGRELRRMSDEFEGSFKGLPRPKSAGTATQMRQSAGWTRIIQSWWDRNLGKGGSTPSQ |  | binds
His-tagged Bad Thr201A, phosphorylated by active Akt (natural protein, mouse, UniProt Q61337 1-204, looked up, phosphoserine at 136 (by CA-Akt in vitro)) MGTPKQPSLAPAHALGLRKSDPGIRSLGSDAGGRRWRPAAQSMFQIPEFEPSEQEDASATDRGLGPSLTEDQPGPYLAPGLLGSNIHQQGRAATNSHHGGAGAMETRSRHSSYPAGTEEDEGMEEELSPFRGRSRSAPPNLWAAQRYGRELRRMSDEFEGSFKGLPRPKSAGTATQMRQSAGWTRIIQSWWDRNLGKGGSAPSQ |  | binds
